Assay: label from the status in PepcDB records

| Sequence | protein production |
| --- | --- |
| AIAPVKKKRKAPGVAAAVAEDAGLKKCKIPSYCRSQPPARLISGEEDFSRKKCLAWFYEYAGPDEVVGPEGMEKFCEDIGVEPENIIMLVLAWKLEAESMGFFTKEEWLKGMTSLQCDCTEKLQSRFDFLRSQLNDISSFKNIYTYAFDFARDKDQRSLDIDTAKSMLALLLGRTWPLFSVFYQYLEQSKYRVMNKDQWYNVLEFSRTVHADLSNYDEDGAWPVLLDEFVEWQKNPSNIIARTVVKTMQTL | failed |
| MFAFPRLRFVLVGTQHPGNIGAAARAMKTMGISRLVLVAPECQLDEHAYRRSAGAEDVLEAASVHTVLADAVADCTFVLGCTARTRRVAFEELRPAAAASQILTNINAAGEVALLFGRERTGLTNEELQLCHVAVHIPADPLFSSLNLAAAVQILAYEIRLASLDAPSAPLHSTSGFRKTPASHAQLEGLFGQFKQTLDEIDFHKGRAPESAMRKLRRLFAKAELTQQEIRLLRGVLSDVQRIVMLKRQRDT | failed |
| TLPPRGRLRIDVPLALAHAILIPNLKHFQSLYPDIDVILVSSDKKTDLISEGVDCLVRLGELQDSSFISRRLGDIRMVTCAAPSYLQQYGRPETLADLDQHRAINFFSDHSRDVMEWKFTKDGKIVSLRPVGSMLVDNSDILL | failed |
| MSSCCAAEAKNASERKLLWIVLILNFSMFVIEFIAGWLANSSGLLADSLDMLADAAVYSLSLYAVGKSLLYKGRAALANGYLQLSLGLLVLVDVARRIWLGSEPQSELMLSIGFMALIVNMICFVLLYQFRQGDVNLKASWICSRNDMLANIGIIISAVLVGQFDAAWPDWVIGSVIAGIVIHSSLAIINEAKVSIQSDAVADKNRT | failed |
| MVNEGLIPSLEDEVKRRGVINQLRKIVVRWVKNVAWQHRLPQNQIDATNATILPYGSYGLGVYGSESDIDALCIGPFFASIADFFISLRDMLKSRREVSELHCVKDAKVPLIRFKFDGILVDLPYAQLRVLSIPNNVDVLNPFFLRDIDETSWKILSGVRANKCILQLVPSLELFQSLLRCVKLWAKRRGVYGNLNGFLGGVHMAILAAFVCGYQPNATLSSLLANFFYTFAHWQWPTPVVLLEDTYPSTGAPPGLMPIQLPCGSHQYCNSTITRSTFYKIVAEFLLGHNLTKDYLKLNFSWKDLFELYPYANTYTWFTKIHLSAANQEDLSDWVGWVKSRFRCLLIKIEEVYGICDPNPTEYVETYTKQPNIVFYWGLQLRTINVSDIESVKIDFLKNVNSGSFRGTVGRIQLTLVKASQLPKNGECGSNNRSKKVTKTCWRIREDKQCNNVPVYSKHLPGYVVGYQKMVNREADGMEVKC | failed |
| MTMRRVKGGLVQAVRVARGGAVAWLSLCMLMVGGQALAQQAITAPASNAVERVEQASTGESTVVTVTLKDTPAQKPVEFSTQQPARIAIDFFGTAFAQGRANYQYGGKLLRAASVVQIGDRTRVVLDLARQSQYKSEIRGNQYVLTLGAAPTASATPVPTFAAPAPTAGVERPSVRNIDFRRGEELAGRVVVDLSTSNSAINIAQQGQNLVVDFAGATLPQSLRRRFDVSDFGTPVQAMRATDNGTGARLVIEPRGNWQYSSYQTDTQFVVEVRPTKEDPNKLISGPGYRGERMSLNFQNIDIRSLLQVFADFTNLNIVTSDSVTGTLSLRLKDVPWDQALQIVLDSKGLASRRNGNVLWVAPRNELATKEKAELESQQQVTELEPLRSQVFRLNYQRADDVRNMLLGTGGTAGGGAAASRILSKRGSLTSDARTNQLFVSDIPSKLEEVQAFLLKIDIPVRQVMIEARIVEADDTFSRNLGAKLGFAAKTNGAGYGNTYSNVVSPVTKDATWDNSAAVSLPANGINGVNAASVAVSLFNAGAGRFLALELSALEADGRGKIISSPRVVTADNIKALIEQGTEVPYQQATSSGATSVSFKKANLKLEVTPKITPDGNVFLDVDVNKDSLGTQTTNGFAINTKHVQTQVLVENGGTVVIGGIYTQNERTDVNKVPLLGDIPVLGNLFKSTAKTNDRTELLVFLTPRVLSDQLSLK | failed |
| MGDREKNVGFAASLNILFTIIELIGGILTNSLALLADAMHDFADSLALIVAWFAEKKAKKPATSKMTFGYRRLSLLSAAFATIVLIAGSLFILSQAIPRLLNPEPVNAEGMFLIAIIGVTINGLGYFRLKKGISQNEKILSWHLLEDILGWVVLLIGSVIIGFWNQPIIDPIMTIGFTIFVLWGVFKNAKETFNLLLEGVPEYIDIDEVKESILSVEGTKAVHDLHIWSLEGETDILTAHVVVEDEYLARPDKMRQSIKSRLEKHQIEHSTLELESEGFCSGTECIFELKG | failed |
| MSITRRVRLSVDTCCYEAEIAGILRPQLLKGRMSVREEFDAWAAEGKDRGMEDRHWHTAKHVLARMPVEPGDTVLDLGTGSGYALRALRDTNDAGPCYGLDGSPEMLRNAREYTDDDGIGFLRGDFDALPFATDSIDHVFSMEAFYYASDPPHTLEEIARVLRPGGTANIAVNYYEENVHSHEWQEFIDIEMTRWSADEYREAFREAGLAVAAQDTIPDREVEIPPADTFPTDEFETREAMVERYRELGTLLTVGVATE | failed |
| MHESRLLLVMHWTEILAVFSFAVSGLAEARRRRLDAVGAFIVAFLTAFGGGTLRDLLLDRRPFYWVEHEQYLLALFVMSLFANRVIRLVSQLVSDRVLIVADAVGLGLFGVLGTQLALDAGVPVFVSVMMGVITAAFGGLLRDVVCNEIPMLLRDNRPYATCAFLGCWLYVGLTHTSLQPSVAVVVATLAIVAGRLATLRWNITLPR | failed |
| DKSNKLQNLVAEQLVGCGFNEILNNSLTRAAYYDGLESYPSKNLVMLLNPLSADLNCMRQTLLFGGLESIAHNANRKNADLKFFEFGNCYHFDAEKKNPEKVLAPYSEDYHLGLWVTGKMVSNSWAHADENTSVYELKAYVENIFKRLGLDLHSLVVGNLSDDIYSTALTVNTKGGKRLATFGVVTKKMLKAFDVDNEVYYADLNWKELM | not failed |
| MDMQHRIRQLFQASIETKQQALEVLPPYIEQASLVMVNALLNEGKILSCGNGGSAGDAQHFSSELLNRFERERPSLPAVALTTDSSTITSIANDYSYNEVFSKQIRALGQPGDVLLAISTSGNSANVIQAIQAAHDREMLVVALTGRDGGGMASLLLPEDVEIRVPSKITARIQEVHLLAIHCLCDLIDRQLFGSEE | not failed |
| MAIEPDLGLDSTEPKLFSARLKPHRALSHNGFLILIGLVGTASFAAGLAFWLIGAWPVFGFFGLDVLALAFAFKVSFARARASEEISMTCSELRVRRTSARGEVAEWVLNPLWVRLEKIVHHDAGIERLYLVSSGRRLAIANFLGAEEKANFAKALMAALDAARRGPLYPA | failed |
| MHHLILGYGYCGYYLAQELLGHHQQVTVVSRQLKKELELSKLQHISHDLEYPFHWSEPDSIIYYLIPPPSQGTCDTFLQQFLNQSSLNAKKIIYFGSSGVYGNHQGAWVDELSACIIDSPRQQRRLDAEQQWLAYCQQHNKELSLLRIAGIYGPNRIPADAAKSKIPIIKPTEAPFTNHIFVKDLALIAYLLGQKQTTSAVYNVADGNPTHMGELQQTVANALGIESASYESFEQAWEKASPMKREFMRASKRLKIDLLKTALGEDIQFTSLYDAVKQSL | failed |
| MVYVDPDRFDELVAEALDGIPEEFARAMRNVAVFVEDEPDDPELLGLYVGIPLTERTTAYGGVLPDRIIIYRNTICALCETESEVIDEVRKTVVHEIAHHFGIDDERLHELGY | not failed |
| MVIPSILEQAHALAGRAVGEGGIAVDATVGNGHDTAFLAQAVGAGGAVVGFDVQEEALVETRHRLEREALSAPVRLVHAGHQTLARHLEEAERGRVGAIMFNLGYLPGGDHSVVTRPETTRQALDAGTEALRPGGVITVVAYTGHEGGDEEADAVEAWASALPQAQFRALSYRFPNWSNDPPRLFAVEKRDALEHHHHHH | failed |
| KIIGYARVSFNAQKDDLERQIQLIKSYAEENGWDIQILKDIGSGLNEKRKNYKKLLKMVMNRKVEKVIIAYPDRLTRFGFETLKEFFKSYGTEIVIINKKHKTPQEELVEDLITIVSHFAGKLYGMHSHKYKKLTKTVKEIVREEDAKEKE | not failed |
| MVSRDFDRDKRLLTARQFSAVFDSPTGKVPGKHVLLLARENGLDHPRLGLVIGKKNVKLAVQRNRLKRLIRESFRHNQETLAGWDIVVIARKGLGELENPELHQQFGKLWKRLLRNRPRTESPADAPGVAD | not failed |
| MEKPIKTQWQLLMDNRNRFFWLLQAGGWIGYALVNYIGSLMHEMRDIYTLIIILGAYAGFLSTIPLRYLYRRIWEFPPALMVLIAIVVSYVTAVAWAIVDNATYWEIYKFGFRPDSPFFYLKNSLAKFYIILSWSGLYFGIKYYQMLQEEKQKALLASSMAHQAQLKMLRYQLNPHFLFNTLNAISTLILLKENEKANLMVNKLSHFLRFSLDNEPIKKVTLEKEVDALLLYLDIEKVRFDEQLEIDIHLSDETKNALVPSLICQPLIENSIKYAISNVEGVGKIRVRSWSEKENLILEVCDNGPKIETDPEKLFRKDGVGLNNTRQRLKSLYGKQYRFEMLKGAESGLCVRITIPMEMLESQR | failed |
| MKVALGGTFEPLHEGHKKLIDVAIKLGGRDITIGVTSDRMARARIRSVLPFAIRAENVKRYVMRKYGFEPEIVKITNPYGKTLDVDFEYLVVSPETYEMALKINQKREELGKRKITIVKVDWMMAEDGKPISSTRIKRGEIDRYGG | failed |
| MNHASDLILIGSTLLLALAAHAVGQKVHVPRVTLLLLLGALAGPDLLDLLPDNADQSFSLITQLTLAMVGFLLGERMSARDLRQGKEALIVSLAVTLLTAAAVILAVWAVTGNLPAALLLGGIATATAPAATLDVLREAGANGPLTRLVFQVVAIDDAWGAILFSVLLVAAGLLLGNGDLSGPTAMLHGLWEVAGSVLLGMVLGFPMAWLTGRLRPGEPMLLESAGFVFVAAGLASWFGLSYLLTCMTLGIVVANRARHHVRPFRSIEGISEPFLALFFFMAGYQLDWLALPTLGALGLAYVLARIGGRLAGGYLGGLLAGSAPETRQRIGACLMPQAGVALGLALVATERLPELGYILPLVIGATVVFELIGPPMTLLQLRKAGETGQGYQEEPDE | failed |
| MKLVFVTVNYNNIDETRKVLNCFSGLSHGENSVLYVVDNSDSKSECQSLDKENTNNKIKFLYPKENLGYLTGASFGVDFHYNNHGFDFDYLIILNNDIIFNVNEVLKSLEIFSQNNDAMMISPLVIDRGVNVNPYLTVRKSKRYMMFWNFILSNFFTFKVFHKINKYRALLSSKNNFSSTVQPFQKIYGSHGSVFILKNEYFLRGGSLRRLPFLYGEEIYIAEQVRKLGGDCVYYPSIKFEHKGSATLGNDTSRFKYLCIKQGHSFLYREFYS | failed |
| MMQKPITEIIIVGGGTAGWITAGLLAAEHNVDKGVLAHSPKLNITLIESPDVATIGVGEGTWPSMRSTLSKIGIDENDFIRQCDASFKQGSRFINWCKDPQSNVADSYLHPFSLPHGHQELDLCPYWLPHAEQVSFAEAVCSQQVLTQLGLAPKSIVTAQYHFQNNYGYHLNAAKFSQLLTEHCTQKLGVTHIRDHVSQIINNQHGDIEKLITKQNGEISGQLFIDCTGAKSLLLGEHLQVPFLSQKSVLFNDRALAIQVPYSDANSPIASCTHSTAQPNGWIWDIGLPTRKGVGYVYSSSHTNDIDAQKTLFNYLGVDGAAADKLEPRQLAINPGYRAKCWQNNCIAIGMAAGFIEPLEASALALIEWTASTLAQQLPPNRMVMDTISARVNERYQQHWQQIIDFLKLHYVISQRQEDRYWRDHRESNSIPDSLQAMLELWRYQTPSQQDISYKEALFPAASFQYVLYGMSFNTQLPTHVKPSMQQLAQRLFNDNQQRTQALSKNLPTNRELLDKVAQYGFPKL | not failed |
| MMITLVLSSFLSRDNIMRGMIYLIIATILAAIGWGASKMVVMTIPGDIFIGTRFLLASFVLAPFCFKQFRTLTGKQILALSGVGLVLSFALQVWVYAVSITTSLAEGAFIMSLAMIIAPIISWILFRNKPNKAFWIALPISILGMILLTLGNGWKLEASQLGFMLSALLLSMHFVLNKRIIGAITPLLSICVQLFVVGLSGCLYASLNSHPSFEITQHAVFWFLISTIVATAIRYLAQTLGQFSVNIETASLIMILEPVWTLVLSISVLHEVVAPQKLIGGAVIFLSLFVYIKLSRRLK | failed |

— a protein production outcome set (Wang et al. 2014)
